Kd data for 25 sequences are collected here from the Immune Epitope Database (IEDB).

The target in assay [1] is HLA-A*02:03. The experiment in a line: IEDB peptide-MHC binding, purified MHC/competitive/radioactivity; filed as Kd, often an IC50 or EC50 that approximates it; ≥ and ≤ were set here for values at or beyond the usual limits of such assays.
The target in assay [2] is HLA-A*02:17. The description is as above.
Assay [3] has as its target HLA-A*02:01. Described as above.
Assay [4] has as its target HLA-A*02:06. Described as above.
For assay [5], the target named is HLA-A*02:02. The assay is described as above. As to conditions: source organism: Vaccinia virus WR.
For assay [6], the target named is HLA-B*15:03. The description is as above. Particulars: source organism: Vaccinia virus WR.
The target in assay [7] is HLA-B*08:01. The assay is described as above. Particulars: source organism: Dengue virus 3 China/80-2/1980.
The target in assay [8] is HLA-B*83:01. The experiment in a line: IEDB peptide-MHC binding, purified MHC/competitive/fluorescence; filed as Kd, often an IC50 or EC50 that approximates it; ≥ and ≤ were set here for values at or beyond the usual limits of such assays. Particulars: source organism: human gammaherpesvirus 4.
Assay [9] has as its target HLA-B*15:42. Described as above. As to conditions: source organism: human gammaherpesvirus 4.
Assay [10] deals with HLA-B*45:06. Described as above. As to conditions: source organism: human gammaherpesvirus 4.
Assay [11] concerns the target HLA-C*05:01. The experiment in a line: IEDB peptide-MHC binding, purified MHC/direct/fluorescence; filed as Kd, often an IC50 or EC50 that approximates it; ≥ and ≤ were set here for values at or beyond the usual limits of such assays.
Assay [12] addresses HLA-A*03:01. The experiment in a line: IEDB peptide-MHC binding, purified MHC/competitive/fluorescence; filed as Kd, often an IC50 or EC50 that approximates it; ≥ and ≤ were set here for values at or beyond the usual limits of such assays.
Assay [13] has as its target HLA-A*32:01. The experiment in a line: IEDB peptide-MHC binding, purified MHC/competitive/radioactivity; filed as Kd, often an IC50 or EC50 that approximates it; ≥ and ≤ were set here for values at or beyond the usual limits of such assays. As to conditions: source organism: Vaccinia virus WR.
The target of assay [14] is HLA-A*01:01. Nature of the assay: IEDB peptide-MHC binding, purified MHC/direct/fluorescence; filed as Kd, often an IC50 or EC50 that approximates it; ≥ and ≤ were set here for values at or beyond the usual limits of such assays.
Assay [15] addresses HLA-B*46:01. The assay is described as above. Particulars: source organism: West Nile virus.
Assay [16] deals with HLA-B*40:01. The assay is described as above. Particulars: source organism: West Nile virus.
In assay [17] the target is HLA-A*11:01. The description is as above.
Assay [18] has as its target HLA-B*27:05. The assay is described as above. As to conditions: source organism: West Nile virus.
In assay [19] the target is HLA-A*03:01. Described as above.
Assay [20] addresses HLA-B*58:01. The description is as above.
Assay [21] deals with HLA-B*07:02. Described as above.
In assay [22] the target is HLA-A*31:01. Described as above.
The target in assay [23] is HLA-A*29:02. The assay is described as above.
In assay [24] the target is HLA-B*08:01. The assay is described as above. As to conditions: source organism: West Nile virus.
Assay [25] concerns the target HLA-B*57:01. Described as above.
Assay [26] addresses HLA-A*02:01. The assay is described as above. Particulars: source organism: West Nile virus.
Assay [27] has as its target HLA-A*69:01. Described as above. Particulars: source organism: West Nile virus.
Assay [28] has as its target HLA-B*18:01. The assay is described as above. Particulars: source organism: West Nile virus.
Assay [29] concerns the target HLA-B*44:02. The description is as above. Particulars: source organism: Mycobacterium tuberculosis.
For assay [30], the target named is HLA-B*39:01. The description is as above. As to conditions: source organism: Mycobacterium tuberculosis.
The target in assay [31] is HLA-B*46:01. Nature of the assay: IEDB peptide-MHC binding, purified MHC/competitive/fluorescence; filed as Kd, often an IC50 or EC50 that approximates it; ≥ and ≤ were set here for values at or beyond the usual limits of such assays. As to conditions: source organism: Staphylococcus aureus subsp. aureus N315.
The target of assay [32] is HLA-A*26:01. The assay is described as above. Particulars: source organism: Staphylococcus aureus subsp. aureus N315.
Assay [33] has as its target HLA-B*15:01. The assay is described as above. Particulars: source organism: Staphylococcus aureus subsp. aureus N315.
Assay [34] deals with HLA-B*27:03. The description is as above. As to conditions: source organism: Staphylococcus aureus subsp. aureus N315.
In assay [35] the target is HLA-B*57:01. The description is as above. Particulars: source organism: Staphylococcus aureus subsp. aureus N315.
The target of assay [36] is HLA-A*02:01. The assay is described as above. Particulars: source organism: Staphylococcus aureus subsp. aureus N315.
The target in assay [37] is HLA-B*39:01. Described as above. Particulars: source organism: Staphylococcus aureus subsp. aureus N315.
Assay [38] has as its target HLA-B*18:01. Described as above. Particulars: source organism: Staphylococcus aureus subsp. aureus N315.
Where [39] appears, read: source organism: Dengue virus 4 Philippines/H241/1956.
The mark [40] stands for this setting: source organism: Dengue virus 1 Nauru/West Pac/1974.
Setting [41] is: source organism: Vaccinia virus WR.
Setting [42] is: source organism: Dengue virus 3 China/80-2/1980.
The mark [43] stands for this setting: source organism: Dengue virus 1 Brazil/97-11/1997.
The mark [44] stands for this setting: source organism: West Nile virus.
The mark [45] stands for this setting: source organism: Mycobacterium tuberculosis.
Setting [46] is: source organism: Dengue virus 4 Dominica/814669/1981.
The mark [47] stands for this setting: source organism: Dengue virus 1 Singapore/S275/1990.

Some results are limits rather than exact numbers.

What is called Kd is a measure of binding affinity in units of concentration. For the sequence ALLGAMTAGI, the Kd in [1] (setting [39]) was determined as 58.8 nM; in [2] (setting [39]), 126 nM; in assay [3] (setting [39]) it was 25.3 nM.

On to AMLDVDLHPA, for which the Kd in [1] (setting [40]) came out at 2.03 nM; in assay [4] (setting [40]), 7.08 nM; in assay [2] (setting [40]), 1100 nM; in assay [3] (setting [40]), 5.66 nM.

Regarding CAVNTPVSM, the Kd was 6270 nM in [5], 15700 nM in assay [1] (setting [41]), 1520 nM in assay [4] (setting [41]) and 43 nM in assay [6].

In the case of CLMMMLPATL, the Kd in [1] (setting [42]) stood at 6.85 nM; in assay [2] (setting [42]) it was 253 nM; in [7] it was 60.5 nM.

For the sequence CMSNSRLSF, in assay [6], the Kd is 1.03 nM.

As to ELMRRGDLPV, the values for the Kd in assay [1] (setting [43]) and in assay [2] (setting [39]) were 139 nM and 19900 nM, respectively.

Regarding FLDKGTYTL, the Kd was at least 5000 nM in [8], at least 5000 nM in assay [9], at least 5000 nM in assay [10] and at most 1 nM in assay [11] (source organism: human gammaherpesvirus 4).

On to FLGEDGCWYG, for which the figures for the Kd in assay [2] (setting [39]) and in [3] (setting [39]) were 1050 nM and 52.4 nM, respectively.

For GLAMGIMML, the Kd was 0.67 nM in assay [1] (setting [43]), 15000 nM in assay [2] (setting [40]) and 77.6 nM in assay [3] (setting [40]).

Take HLIMFEQYF: the Kd in assay [6] was 45.5 nM.

Turning to ILHSDYQLF, in assay [6], the Kd stood at 2.43 nM.

ILTILTIIGL: the Kd in assay [2] (setting [39]) was determined as 456 nM; in assay [3] (setting [39]), 18.5 nM.

With ISASDMQKF, the Kd in [6] is 812 nM.

Take LAVLFINSI: in [6], the Kd worked out at 191 nM.

As to LLLKERGLH, the dissociation constant (Kd) in [12] (source organism: Vibrio parahaemolyticus AQ3810) is at least 20000 nM.

Turning to LMTMNIVNF, the Kd in [13] was 6530 nM; in assay [6], 16.5 nM.

For the sequence LQKLAQHSI, the Kd in assay [6] was 243 nM.

Take LSSSVPSQK: in [12] (source organism: Homo sapiens), the equilibrium dissociation constant (Kd) was 455 nM.

Regarding LVKTESWIL, the Kd in assay [14] (setting [44]), in assay [15], in assay [16], in assay [17] (setting [44]), in assay [18] and in [19] (setting [44]) was at least 20000 nM each time. The Kd in assay [20] (setting [44]) was at least 20000 nM; in assay [21] (setting [44]), at least 20000 nM; in assay [22] (setting [44]), at least 20000 nM; in assay [23] (setting [44]) it was at least 20000 nM; in assay [24], 1890 nM; in [25] (setting [44]) it was at least 20000 nM. For the same sequence, the dissociation constant Kd in [26], in [27] and in [28] was at least 20000 nM throughout.

Regarding SQAFNTPAL, the Kd in [14] (setting [45]), in assay [29], in assay [19] (setting [45]), in assay [20] (setting [45]), in [21] (setting [45]) and in assay [22] (setting [45]) was at least 20000 nM each time. For the same sequence, the Kd in assay [23] (setting [45]) was at least 20000 nM; in assay [25] (setting [45]), at least 20000 nM; in assay [30] it was 30.8 nM.

Consider TFDVAPSRL, for which the Kd was at least 20000 nM in assay [11] (source organism: Mus musculus) and at least 32600 nM in assay [17] (source organism: Homo sapiens).

For the sequence TLLCLIPTV, the dissociation constant Kd was found to be 3.44 nM in [4] (setting [46]) and 151 nM in assay [2] (setting [46]).

For the sequence VILNYIPVL, the Kd in assay [31], in [32], in [12] (source organism: Staphylococcus aureus subsp. aureus N315), in assay [33], in assay [34] and in assay [35] was at least 20000 nM throughout. For the same sequence, the Kd in [36] is 0.6 nM; in [37] it was at least 20000 nM; in [38], at least 20000 nM.

For VLFVVTLIPL, the values for the Kd in assay [2] (setting [39]) and in assay [3] (setting [39]) were 3110 nM and 57 nM, respectively.

As for VLMLVAHYAI, the Kd came to 1830 nM in assay [2] (setting [47]) and 97.4 nM in [3] (setting [47]).
